The text below walks through data of article PMC7211993.

Test [1] addresses MDA-modified bovine serum albumin (bovine) (UniProt P02769). The test is described as follows: ELISA; plasma added to coated MDA-BSA; bound CFH/FHL-1 detected with a monoclonal antibody that recognizes SCR5; read-out RLU/100 ms. (In general: In an ELISA, binding on a coated surface is turned into a signal by an enzyme label.)
The target is the same in test [2]. The test is described as follows: MST; microscale thermophoresis with both binding partners in fluid phase. For orientation: Microscale thermophoresis detects binding through changes in fluorescence in a small temperature gradient.

Chain of complement factor H and its splice variant factor H-like protein 1 in plasma (study cohorts, all rs1061170 genotypes) (P08603 19-1231, change not shown): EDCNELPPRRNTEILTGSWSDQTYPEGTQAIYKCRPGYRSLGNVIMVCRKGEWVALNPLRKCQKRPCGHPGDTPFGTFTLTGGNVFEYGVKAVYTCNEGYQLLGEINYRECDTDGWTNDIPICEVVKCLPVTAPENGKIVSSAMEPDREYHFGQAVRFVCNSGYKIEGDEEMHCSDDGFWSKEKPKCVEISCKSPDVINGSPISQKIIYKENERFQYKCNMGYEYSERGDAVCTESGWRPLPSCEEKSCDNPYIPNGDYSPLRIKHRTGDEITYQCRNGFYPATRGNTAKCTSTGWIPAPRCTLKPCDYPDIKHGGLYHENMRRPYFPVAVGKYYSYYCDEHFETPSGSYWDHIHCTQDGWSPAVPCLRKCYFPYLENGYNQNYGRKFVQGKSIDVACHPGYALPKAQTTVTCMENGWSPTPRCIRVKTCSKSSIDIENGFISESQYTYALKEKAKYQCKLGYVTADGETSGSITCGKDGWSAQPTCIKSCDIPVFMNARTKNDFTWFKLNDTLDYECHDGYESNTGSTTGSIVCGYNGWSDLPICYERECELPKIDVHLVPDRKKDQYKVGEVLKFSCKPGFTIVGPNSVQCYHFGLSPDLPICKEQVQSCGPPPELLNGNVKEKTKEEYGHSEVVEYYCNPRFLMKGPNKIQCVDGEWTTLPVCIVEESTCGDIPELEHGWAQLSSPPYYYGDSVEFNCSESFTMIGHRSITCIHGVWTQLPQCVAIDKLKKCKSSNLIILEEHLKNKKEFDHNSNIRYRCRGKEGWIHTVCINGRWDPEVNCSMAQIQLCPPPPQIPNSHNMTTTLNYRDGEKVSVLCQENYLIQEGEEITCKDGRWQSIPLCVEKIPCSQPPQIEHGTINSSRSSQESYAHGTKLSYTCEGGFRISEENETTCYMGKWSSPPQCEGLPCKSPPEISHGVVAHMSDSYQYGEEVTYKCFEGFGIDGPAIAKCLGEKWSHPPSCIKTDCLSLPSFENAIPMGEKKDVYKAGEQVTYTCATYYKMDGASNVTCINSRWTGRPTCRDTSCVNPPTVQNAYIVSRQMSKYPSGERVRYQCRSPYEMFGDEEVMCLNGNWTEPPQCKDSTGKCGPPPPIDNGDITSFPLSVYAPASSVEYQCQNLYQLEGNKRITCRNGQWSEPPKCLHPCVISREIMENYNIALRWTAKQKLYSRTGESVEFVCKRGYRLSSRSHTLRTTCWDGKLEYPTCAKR
Chain of MDA-modified bovine serum albumin (bovine) (P02769 25-607): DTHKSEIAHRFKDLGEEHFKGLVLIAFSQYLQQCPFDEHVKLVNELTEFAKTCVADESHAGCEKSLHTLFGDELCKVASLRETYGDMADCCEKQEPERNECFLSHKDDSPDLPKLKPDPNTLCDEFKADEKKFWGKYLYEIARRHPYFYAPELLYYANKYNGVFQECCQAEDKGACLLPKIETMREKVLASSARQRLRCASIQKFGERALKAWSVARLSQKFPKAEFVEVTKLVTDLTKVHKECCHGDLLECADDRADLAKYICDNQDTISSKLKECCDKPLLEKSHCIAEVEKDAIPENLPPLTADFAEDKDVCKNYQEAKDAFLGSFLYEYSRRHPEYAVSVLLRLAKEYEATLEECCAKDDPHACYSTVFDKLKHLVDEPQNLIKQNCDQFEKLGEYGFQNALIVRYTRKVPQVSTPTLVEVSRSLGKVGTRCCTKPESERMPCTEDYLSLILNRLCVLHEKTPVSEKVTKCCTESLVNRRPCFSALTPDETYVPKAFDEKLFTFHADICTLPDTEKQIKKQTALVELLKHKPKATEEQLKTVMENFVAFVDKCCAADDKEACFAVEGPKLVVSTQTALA

As to “complement factor H and its splice variant factor H-like protein 1 in plasma (study cohorts, all rs1061170 genotypes) (from UniProt P08603 19-1231) (natural protein)”, in test [1], the binding to MDA-BSA, median of healthy individuals (n = 934) is 24200 RLU/100 ms; the binding to MDA-BSA, median of patients with major depression (n = 896) was determined as 24800 RLU/100 ms; the binding to MDA-BSA, median of the integrated cohort (n = 1,830) came to 24600 RLU/100 ms.
With “recombinant complement factor H-related protein 1 (from UniProt Q03591 19-330) (natural protein)”, the equilibrium dissociation constant (Kd) in test [2] worked out at 0.86 µM.
On to “recombinant complement factor H-related protein 3 (from UniProt Q02985 19-330) (natural protein)”, for which the Kd in test [2] worked out at 3.48 µM. This Kd lies about 4-fold higher than the previous one.

As usually defined, the Kd is the free concentration of one partner at which half of the binding sites on the other are occupied at equilibrium, for simple one-to-one binding.
